Molecular target: T1, TtHU (Thermus thermophilus, UniProt P19436 2-97)
T1 sequence: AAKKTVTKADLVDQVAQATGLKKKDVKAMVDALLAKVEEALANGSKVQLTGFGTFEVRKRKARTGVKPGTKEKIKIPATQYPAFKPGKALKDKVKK
Experiment: EMSA; 1 uM DNA; EMSA: 20 mM Tris-HCl pH 7.5, 100 mM KCl, 37 °C, 1 h; CD: 20 mM phosphate pH 7.2, 100 mM KCl, 20 °C, 10 uM TtHU
Details: protein: recombinant, tags: none stated (pET-11a), chain copies: 2

ATGACAACTAAAGCAACACCCAAAACA (ssDNA) [oligo C]
binding result (single strand): binds

B1: oligo AB (dsDNA)
DNA 1: GGCCCCAGTGCTGCAATGATACCGCGAGAC
DNA 2: GTCTCGCGGTATCATTGCAGCACTGGGGCC
binding result (duplex of complementary oligos): binds

TGTTTTGGGTGTTGCTTTAGTTGTCAT (ssDNA) [oligo D]
binding result (single strand): binds

GGCCCCAGTGCTGCAATGATACCGCGAGAC (ssDNA) [oligo A]
binding result (single strand): binds

B2: oligo CD (dsDNA)
DNA 1: ATGACAACTAAAGCAACACCCAAAACA
DNA 2: TGTTTTGGGTGTTGCTTTAGTTGTCAT
binding result (duplex of complementary oligos): binds

GTCTCGCGGTATCATTGCAGCACTGGGGCC (ssDNA) [oligo B]
binding result (single strand): binds

From publication PMC5613972, “A specific single-stranded DNA induces a distinct conformational change in the nucleoid-associated protein HU”
